Source: the Human Domainome abundance scans (Beltran et al. 2025)

B1: Kinesin-like protein KIF16B, residues 1213 to 1273; numbered along this chain, Q96L93 (parent)
chain: ETWTVFRRYSRFREMHKTLKLKYAELAALEFPPKKLFGNKDERVIAERRSHLEKYLRDFFS

Variants of: B1
Assay: abundance fitness (aPCA) (normalised: wild type 0, dead -1); higher = more abundant; growth selection in yeast, the domain comes from the species named
Conditions: Homo sapiens

Abundance fitness, by site and new letter:
M15: F -0.095, G -0.736, L 0.265, P -0.993, Q -1.09, R -1.09, S -0.908, T -0.455, V 0.215, W 0.229
H16: A 0.135, C 0.016, D -0.835, E -0.842, F -0.044, I 0.452, K 0.062, L 0.379, M 0.311, N -0.353, Q -0.194, R -0.073, S -0.083, T 0.144, V 0.342, W 0.534, Y 0.167
K17: A -0.325, C -0.483, E -0.311, F -0.685, L -1, M -0.343, Q -0.452, R -0.199, T -0.489, V -0.225, W -0.783, Y -0.607
T18: A 0.176, C -0.143, D -0.806, E -0.223, G -0.237, H -0.463, K -0.056, L -0.247, M -0.06, N -0.514, R -0.222, S -0.133, V -0.038, W 0.472, Y 0.508
L19: A -0.737, C -0.603, D -1.13, E -0.917, F -0.146, G -0.977, K -0.999, M 0.144, N -0.658, P -1.02, Q -0.991, R -1.07, S -1.11, T -0.844, V -0.656
K20: A -0.632, C -0.574, D -0.945, E -1.02, G -0.676, H -0.421, L -0.671, M -0.746, N -1.01, P -0.904, Q -0.411, R -0.211, V -0.853, W -0.734, Y -1
L21: A 0.356, C -0.131, D 0.101, E 0.352, F -0.559, G -0.028, H 0.112, I -0.379, K 0.339, M 0.147, N -0.289, Q 0.159, R 0.163, S 0.254, T -0.079, V 0.114, Y -0.477
K22: A -0.168, C -0.222, D -0.907, E -0.77, G -0.454, I 0.069, L 0.127, M -0.153, P -0.921, Q -0.828, R -0.354, S -1.01, T -0.207, V 0.03, W 0.28, Y -0.354
Y23: A 0.068, C 0.167, E -0.897, F 0.296, G -0.42, H -0.128, I -0.034, K -0.803, L 0.279, M 0.051, P -1.06, Q -0.393, R -0.726, S -0.528, T -0.379, V 0.39, W 0.177
A24: E -0.174, F -0.331, G -0.446, L -0.352, M -0.107, P -0.518, Q -0.227, R 0.178, S -0.24, T -0.115, V -0.321, W -0.569
E25: A -0.309, F -0.224, G -0.384, H -0.749, I -0.292, K -0.144, L -0.465, M -0.409, Q 0.015, R -0.352, S -0.238, T -0.468, V -0.475, Y -0.542
L26: A -0.661, C -0.047, D -0.573, E -0.819, F 0.158, G -0.667, H -0.946, K -0.279, M -0.298, N -0.694, P -0.652, Q -1.04, R -0.872, S -0.77, T -0.851, V -0.364, W -0.033, Y -0.306
A27: C 0.099, D -0.388, F -0.215, G -0.293, K 0.286, L -0.02, M 0.246, N -0.281, Q 0.166, R 0.245, S -0.099, T 0.127, V -0.041, W -0.362
A28: C -0.156, F -0.116, G -0.101, I -0.311, K -0.094, M -0.433, P -0.424, R -0.036, S -0.129, T 0.009, V -0.912, W -0.177, Y -1.03
L29: A 0.172, C -0.228, E -0.883, F -0.188, H -0.38, I 0.427, K -0.226, M 0.337, R -0.192, S -0.513, T -0.132, V -0.033, W 0.223, Y -0.31
E30: A 0.169, D 0.08, G 0.153, H -0.212, I 0.539, K -0.033, L 0.476, M 0.347, N 0.071, Q 0.036, R 0.018, S 0.151, T 0.108, V 0.372, W 0.313, Y 0.322
F31: A -0.573, C -0.644, D -0.946, E -0.46, G -0.862, I -0.64, K -0.752, L -0.397, N -0.703, Q -0.716, R -0.692, S -0.699, T -0.949, V -0.545, W 0.194, Y -0.295
P32: A 0.075, C 0.171, D -0.082, E -0.374, F 0.329, H 0.166, K 0.275, L 0.296, M 0.191, N 0.209, Q -0.243, R 0.139, S 0.159, T 0.069, W 0.353, Y -0.691
P33: A 0.047, D -1.07, E -0.857, F 0.495, G 0.279, H 0.107, I 0.24, K 0.035, L 0.366, Q -0.429, S 0.022, T -0.02, V 0.17, W 0.322, Y -0.378
K34: A 0.368, V 0.06
K35: A -0.204, D -0.717, E -0.786, G -0.148, I -0.521, M -0.36, N 0.034, Q -0.233, S -0.108, T -0.585, V -0.34, Y -0.073
L36: A -0.41, D -0.596, E -0.592, F -0.02, G -0.658, H -0.826, K -0.463, M -0.586, P -0.317, Q -0.976, R -0.634, S -0.67, T -0.453, V -0.435, W 0.27, Y -0.525
F37: A -0.451, C -0.631, D -0.2, E -0.407, G -0.334, H -0.597, I -0.111, K -0.189, L -0.271, P -0.573, Q -0.476, R -0.35, S -0.446, T -0.566, V -0.202, W -0.734
G38: A -0.202, C -0.46, D -0.678, E -0.173, F -0.224, H -0.151
